One molecule from US20260256879A1, “COMBINATION THERAPY WITH MEK INHIBITORS FOR THE TREATMENT OF CANCER” (FUNDACIÓ PRIVADA INSTITUT D'INVESTIGACIÓ ONCOLÒGICA DE VALL …, priority 2023, published 2026) can be followed below.

The experiment relates to SkMel28 cells. Briefly: AlamarBlue cell viability, 5 days of treatment, alone or in combination; synergy by SynergyFinder 3.0 (ZIP). Type of experiment: cell-based, human. Conditions: SkMel28, 5 days, FIG. 1A. As to the method:
Omomyc in Combination with MEK Inhibitors Acts Synergistically in Decreasing the Viability of Melanoma Cancer Cells Two human melanoma cell lines with mutations in BRAF (BRAF^V600E) (SkMel28 and SkMel37) were used. Cells were plated in 96 well plates and treated on the following day with increasing concentrations of Trametinib and Omomyc, alone or in combination. After 5 days of treatment, media was removed and AlamarBlue™ Cell Viability Reagent was added to each well, incubated for 3 hours until metabolized, and fluorescence was read with a microplate reader using an excitation between 530-560 and an emission at 590 nm.
Synergy was evaluated using SynergyFinder 3.0 web application derived from Ianevsky A et al. Nucleic Acids Res. 2022; 50(W1):W739-W743.
Synergy scores can be interpreted as the average excess response due to drug interactions. Synergy scores close to 0 give limited confidence in synergy or antagonism. So, when the synergy scores are: less than −10, the interaction between two drugs is likely to be antagonistic. From −10 to 10, the interaction between two drugs is likely to be additive. Greater than 10, the interaction between two drugs is likely to be synergistic.

B1: Omomyc: Mutated bHLHZip domain of Myc (E61T, E68I, R74Q, R75N); tested polypeptide is SEQ ID NO: 4, N-terminal methionine, produced in E. coli (protein)
chain: MTEENVKRRTHNVLERQRRNELKRSFFALRDQIPELENNEKAPKVVILKKATAYILSVQAETQKLISEIDLLRKQNEQLKHKLEQLRNSCA
modifications: N-terminal methionine
Consider B1, for which the “effect of single agent on viability of the cells” value is recorded as “reduces the viability”.
